Molecular target: Gal-CBP1-2441 chimera (yeast) (UniProt P45481)
Test: cell-based or functional assay

ability of Gal-CBP to activate transcription of pGal-CAT: 2.5 fold
Substance: SRCAP1275-2971 (from UniProt Q6ZRS2 1534-3230)
